According to patent US20160368961A1 (GLYTECH, published 2016):
Values belong to the molecule of their own block, whether it stands above or below them. Positions of bridges follow the written chain, without caps; N, C: chain ends. Primed or numbered codes have the meaning given here. No end group written: not given here. *: point of attachment. dimannose = dimannose sugar chain attached to the residue; GlcNAc(3) = GlcNAc attached to the Cys side chain; Biotin = O=C1N[C@H]2[C@H](CS[C@H]2CCCCC(=O)*)N1; disialo = disialo sugar chain; GlcNAc = N-acetylglucosamine

Key:
[1] = biological target: somatostatin receptors SSTR1-SSTR5 (receptor not singled out in the sentence); assay: competitive radioligand binding
[2] = biological target: somatostatin receptor SSTR4 (Human, UniProt P31391 1-388); assay: cell-based or functional assay
somatostatin receptor SSTR4, sequence (P31391 whole entry): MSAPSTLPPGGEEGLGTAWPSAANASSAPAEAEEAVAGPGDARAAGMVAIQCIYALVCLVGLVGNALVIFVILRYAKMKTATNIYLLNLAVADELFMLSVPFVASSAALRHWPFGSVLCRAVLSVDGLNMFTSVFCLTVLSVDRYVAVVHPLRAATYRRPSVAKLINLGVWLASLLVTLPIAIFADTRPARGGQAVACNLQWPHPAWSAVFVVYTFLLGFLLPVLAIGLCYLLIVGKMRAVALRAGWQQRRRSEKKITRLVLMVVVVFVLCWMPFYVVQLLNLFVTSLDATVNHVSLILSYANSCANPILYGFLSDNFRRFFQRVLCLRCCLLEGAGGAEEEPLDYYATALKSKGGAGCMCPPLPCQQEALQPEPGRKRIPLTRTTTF

[3] = biological target: T1, somatostatin receptor SSTR2 (Human, UniProt P30874 1-369); assay: cell-based or functional assay
T1 sequence (P30874 whole entry): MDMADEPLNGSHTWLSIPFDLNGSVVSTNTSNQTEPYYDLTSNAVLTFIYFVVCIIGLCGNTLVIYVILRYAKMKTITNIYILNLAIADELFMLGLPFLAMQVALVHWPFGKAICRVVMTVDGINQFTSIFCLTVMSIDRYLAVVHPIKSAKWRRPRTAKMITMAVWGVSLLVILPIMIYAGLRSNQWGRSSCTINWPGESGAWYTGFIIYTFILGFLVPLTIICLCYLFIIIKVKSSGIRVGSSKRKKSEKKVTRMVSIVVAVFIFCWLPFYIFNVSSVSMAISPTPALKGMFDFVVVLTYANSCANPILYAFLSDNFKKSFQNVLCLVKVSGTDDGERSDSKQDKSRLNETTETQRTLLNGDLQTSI

[4] = biological target: T1, somatostatin receptor SSTR2; assay: competitive radioligand binding
[5] = biological target: somatostatin receptor SSTR1 (Human, UniProt P30872 1-391); assay: competitive radioligand binding
somatostatin receptor SSTR1, sequence (P30872 whole entry): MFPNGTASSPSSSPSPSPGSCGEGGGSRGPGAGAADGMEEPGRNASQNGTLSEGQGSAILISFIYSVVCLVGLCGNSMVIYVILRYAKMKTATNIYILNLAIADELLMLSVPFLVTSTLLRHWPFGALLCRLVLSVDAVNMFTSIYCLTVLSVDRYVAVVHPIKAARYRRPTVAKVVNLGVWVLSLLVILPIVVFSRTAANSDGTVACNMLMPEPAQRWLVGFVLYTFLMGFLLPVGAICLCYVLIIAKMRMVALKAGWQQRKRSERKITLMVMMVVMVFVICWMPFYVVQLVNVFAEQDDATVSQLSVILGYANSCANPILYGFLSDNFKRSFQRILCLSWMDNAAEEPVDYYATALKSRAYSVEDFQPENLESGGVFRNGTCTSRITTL

[6] = biological target: somatostatin receptor SSTR3 (Human, UniProt P32745 1-418); assay: competitive radioligand binding
somatostatin receptor SSTR3, sequence (P32745 whole entry): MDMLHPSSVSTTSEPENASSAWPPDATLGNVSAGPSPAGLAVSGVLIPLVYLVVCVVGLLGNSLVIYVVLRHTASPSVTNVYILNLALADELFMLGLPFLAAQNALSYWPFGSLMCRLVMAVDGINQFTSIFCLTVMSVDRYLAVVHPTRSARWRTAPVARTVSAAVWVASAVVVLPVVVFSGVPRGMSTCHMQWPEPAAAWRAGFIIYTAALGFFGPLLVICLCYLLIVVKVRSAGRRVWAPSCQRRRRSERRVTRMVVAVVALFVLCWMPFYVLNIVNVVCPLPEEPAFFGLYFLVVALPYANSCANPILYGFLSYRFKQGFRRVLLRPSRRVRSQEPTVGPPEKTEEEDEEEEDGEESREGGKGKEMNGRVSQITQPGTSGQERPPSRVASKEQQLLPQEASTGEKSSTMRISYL

[7] = biological target: somatostatin receptor SSTR1 (human) (UniProt P30872); assay: competitive radioligand binding
somatostatin receptor SSTR1 (human), sequence (P30872 whole entry): as the sequence (P30872 whole entry) above

[8] = biological target: somatostatin receptor SSTR2 (human) (UniProt P30874); assay: competitive radioligand binding
somatostatin receptor SSTR2 (human), sequence (P30874 whole entry): as the sequence (P30874 whole entry) above

[9] = biological target: Somatostatin receptor SSTR4 (UniProt P31391 1-388, limits assumed); assay: cell-based or functional assay
Somatostatin receptor SSTR4, sequence (P31391 whole entry): as the sequence (P31391 whole entry) above

[10] = biological target: Somatostatin receptor SSTR2 (UniProt P30874 1-369, limits assumed); assay: cell-based or functional assay
Somatostatin receptor SSTR2, sequence (P30874 whole entry): as the sequence (P30874 whole entry) above

[11] = biological target: Somatostatin receptor SSTR3 (human recombinant, CHO-K1 cells) (human, UniProt P32745 1-418); assay: competitive radioligand binding
Somatostatin receptor SSTR3 (human recombinant, CHO-K1 cells), sequence (P32745 whole entry): as the sequence (P32745 whole entry) above

[12] = biological target: Somatostatin receptor SSTR1 (human recombinant, CHO-K1 cells) (human, UniProt P30872 1-391); assay: competitive radioligand binding
Somatostatin receptor SSTR1 (human recombinant, CHO-K1 cells), sequence (P30872 whole entry): as the sequence (P30872 whole entry) above

[13] = biological target: Somatostatin receptor SSTR5 (UniProt P35346 1-364, limits assumed); assay: cell-based or functional assay
Somatostatin receptor SSTR5, sequence (P35346 whole entry): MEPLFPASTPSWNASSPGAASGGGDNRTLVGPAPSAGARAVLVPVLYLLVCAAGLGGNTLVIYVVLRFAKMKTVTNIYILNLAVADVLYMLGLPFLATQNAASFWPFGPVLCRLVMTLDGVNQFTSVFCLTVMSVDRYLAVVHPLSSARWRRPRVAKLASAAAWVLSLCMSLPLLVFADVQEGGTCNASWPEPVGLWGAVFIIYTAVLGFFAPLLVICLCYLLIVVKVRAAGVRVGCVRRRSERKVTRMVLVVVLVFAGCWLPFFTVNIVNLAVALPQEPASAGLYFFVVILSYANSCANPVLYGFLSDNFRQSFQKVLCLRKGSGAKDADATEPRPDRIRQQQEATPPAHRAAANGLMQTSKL

Molecule: S1C(disialo).N5C(disialo)-SRIF28 (peptide)
ratio of Ki to the Ki of unglycosylated SRIF14 [1]: 15.7 ratio (:1)

Molecule: C(disialo sugar chain)ANSNPAMAPRERKAGCKNFFWKTFTSC (disulfide 17-28) [S1C(disialo)-SRIF28]
IC50 of cAMP production suppressing action (agonist activity) [2]: 0.065 nM | IC50 of cAMP production suppressing action (agonist activity) [3]: 0.075 nM

Molecule: C(disialo sugar chain)ANSNPAMAPRERKAGCKC(GlcNAc)FFWKTFTSC (disulfide 17-28) [S1C(disialo).N19C(GlcNAc)-SRIF28]
IC50 of cAMP production suppressing action (agonist activity) [10]: 0.08 nM

B1: 29C(disialo)-SRIF28 (peptide)
peptide: SANSNPAMAPRERKAGCKNFFWKTFTSCC
modifications: disialo sugar chain attached Cys added after Cys28 (position 29); disulfide bond Cys17-Cys28
IC50 [11]: 7 nM

Molecule: C(GlcNAc(3))ANSNPAMAPRERKAGCKNFFWKTFTSC (disulfide 17-28) [S1C(GlcNAc)-SRIF28]
IC50 of cAMP production suppressing action (agonist activity) [10]: 0.04 nM

Next, values leading:

Ki [4]: 3 nM
Molecule: N(disialo sugar chain)ANSNPAMAPRERKAGCKC(dimannose)FFWKTFTSC (disulfide 17-28) [S1N(disialo).N19C(diMan)-SRIF28]

Ki [4]: > 531 nM | Ki [5]: > 828 nM | Ki [6]: > 342 nM | Ki as fold of that of SRIF14 [7]: 310 to 5300 fold | Ki as fold of that of SRIF14 [8]: 310 to 5300 fold
Molecule: SANSNPAMAPRERKAGCKNFFWKTC(disialo)TSC (disulfide 17-28) [F25C(disialo)-SRIF28]

Ki [4]: 0.7 nM
Molecule: C(disialo sugar chain)ANSNPAMAPRERKAGCKNFFWKTFTSC-NH2 (disulfide 17-28) [S1C(disialo)-SRIF28-amide]

IC50 of cAMP production suppressing action (agonist activity) [9]: 0.05 nM
Molecule: C(diGlcNAc sugar chain)ANSNPAMAPRERKAGCKNFFWKTFTSC (disulfide 17-28) [S1C(diGlcNAc)-SRIF28]

fold difference in Ki against the glycosylated forms of Examples 1 and 21 [1]: 10 fold
Molecule: C(disialo sugar chain)ANSC(disialo sugar chain)PAMC(disialo sugar chain)PRERKAGCKNFFWKTFTSC (disulfide 17-28) [S1C(disialo).N5C(disialo).A9C(disialo)-SRIF28]

Ki [6]: 1 nM
Molecule: Biotin-C(disialo sugar chain)ANSNPAMAPRERKAGCKNFFWKTFTSC (disulfide 17-28) [Biotin-S1C(disialo)-SRIF28]

IC50 [12]: 30 nM
Molecule: SANSC(disialo)PAMC(disialo)PRERKAGCKNFFWKTFTSC (disulfide 17-28) [N5C(disialo).A9C(disialo)-SRIF28]

IC50 of cAMP production suppressing action (agonist activity) [13]: 0.09 nM
Molecule: C(disialo sugar chain)ANSC(disialo sugar chain)PAMAPRERKAGCKNFFWKTFTSC (disulfide 17-28) [S1C(disialo).N5C(disialo)-SRIF28]
